Experimental data reported in article PMC6561242.

Biological target: α-synuclein 1–140 tagged with the C-terminal Venus fragment (UniProt P37840)
Test: split reporter

Chain of VAMP2 tagged with the N-terminal Venus fragment (natural protein) (P63027 2-116): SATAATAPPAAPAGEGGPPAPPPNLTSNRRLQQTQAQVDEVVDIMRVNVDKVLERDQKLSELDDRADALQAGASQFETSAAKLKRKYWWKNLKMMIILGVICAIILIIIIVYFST

Substance: VAMP2 tagged with the N-terminal Venus fragment (natural protein)
- Venus complementation fluorescence at boutons relative to α-syn 1–140: 1
- Venus complementation fluorescence relative to α-syn 1–140: 1
